According to paper PMC3810306:

Biological target: human CD47 IgSF domain (human)
Assay: SPR

Row | Kd [nM] | dissociation half-life (t1/2) [s] | Substance
1 | 0.0111 |  | high-affinity SIRPα variant CV1 (consensus variant 1) monomer (designed binder)
2 | 300 to 500 | 1.8 | wild-type human SIRPα allele 1 monomer (V-set Ig domain, domain 1) (domain or fragment)
